The domain aggregation screens of Martell et al. (2025)

Assay: soluble fraction after stress (log2 fold change); higher = more stays soluble; pooled small domains, quantitative proteomics
Settings: stress: 50 degC
In short: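 Each library was heated to 50°C as a stress step. The libraries, made up of small protein domains, were pooled and analysed at high throughput by quantitative proteomics. The reported value is the base-two logarithm of the fold change in each protein's soluble amount after stress, taken as a measure of aggregation propensity. The higher the value, the more protein stays in solution.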

Sequence | soluble fraction (log2)
HMKQDYYSILGVMRDASQEEIKRAYLDAAQRLHPDRNTSAGDTEMFLDVQQAYEVLSNPKRRAQYDATLP | 0.148
HMKQEFEMGLPNGVGEQMLAHAIEKFDVKLEHSEFGPKLIGTYEELEKAKVFLYEAIEARLNQLE | -0.0154
HMKQISNTDELETMVKKIIDDNEEQVNKYRGGNEKLFGWFVGQAMKNTGGTANPKVVNEILSKLLK | 0.0976
HMKQLLHLVIGGELKDVRGIEFEDLSKIDFVGAFPSYKAAYDAWKNAAQRTVDNAEMRYFILHAHR | -1.79
HMKQLRVLGIVKAGSILKNSDGSIEFVIEDSGKSLLVKYKGVIPDIFKDGVEAVVEGDLRGSVFNADKLF | -0.75
HMKQMNETQQKAFEIYLDSATFETDYKPISEEQLAAKLDALGLKGSSSSINRWKKDFNWAQALQNKVTLAM | -0.11
HMKQQNFADLAGRFVFNADNEVVFNFGKHKNVPVATVLKNEPGYYGWMMGGDFPLFTKKILKQIKEA | -0.847
HMKQTFGAMLAALRKEKGMTQLELAEQMGVTDKAVSKWERDLSFPDVTSLPRLAEILEVSVDELMQ | -0.0444
HMKQVNVVSVIGQSEANAKTTLTGLGLKVNVAYEEDTSKADGIVLKQSLEGGKTVNEGTTITITVNKIA | -0.0302
HMKQVSDTGAIDAAIREVMDANPDKVAEYRSGKDKLFGFFVGQIMRAMAGKAAPVVVNDRLKALLD | 0.355
HMKQVTVGGTINAGGARIYADSYGNGGGRQTFGSDPIYTVLQERNGYILTRWHKLSSGYTGWFKKSDVSA | -0.298
HMKQYSFEISKADFKKISENFNFKIINEINDSLIISLNDKNINLDELLIFFVERKIKVRSIENI | -0.986
HMKREELTQQTKQNLREAFWSLYIQKPIEKITVKEITDIAGYNRGTFYLYYKDTYDLLAKIE | -0.149
HMKRLLLPGDLAGVRRHLLDRENSFHILRVLRLARGSTIEAMDDAGNRFSATLAGVKAGRALFDLAAKI | -1.54
HMKRLPAQMGGGDGVLRVPGLNNFVYVTIADKTLPAFNNRVPPKKGLRIWVGYSPEEPNLFQVLSTRTD | -0.576
HMKRLPMRKIRDVLRLSADGLSTRKIGVSLTIGRTTVQAYLDRAAEVDLSWPLPPEMSDTDLERLIYPR | -3.39
HMKRNLVSVLDHIVGIGPKRRQSLRTHFGSLEKIKEASVEELAAAPGMNRTSAEAVRHFFDAQQELRGK | 0.537
HMKRRSVIVSVVRAQVRQSADEAAAVVFEAEKNVSLDYLETMPGGWVKVRHRDGQTGFVRVNQIWG | -0.807
HMKRSFGYIRLLPSKRYQASYIGPDSQRHAAPETFTRKMDAEGWLSAERRLIEWDQWTSPEQRAAQARLD | -0.591
HMKRTRLEEAMDWLREQLNDGPVAYATLKDEAPKAEITLSTLRAAGEALRVDKQKKGVQWGGWTWSLPR | 0.0438
HMKRVTRQRTEILRVIDESERPLGPQEILQAGREAIPSLSIATIYRTLRDLLAEELIKTVALPGDSPRYES | -1.31
HMKSARDDILSALDKAGEPLSMKDIAELSGRKLSTLRAQMTRLVAEGAVQATAAAHSPDRKYRK | -0.0859
HMKSARQIAILEIIAEKSIETQEDLADALRLRGFQVTQATVSRDIKELRLVKALAPDGTYRYATAEK | -0.0157
HMKSEIRKKNSQIILDAAEHEFSVHGYRGTSVQMIADRSGLPKANLHYYYKSKSALYGAVLDRIL | 0.202
HMKSERHALILSLIEKKNVETQEDLAELLKERGVAVTQATVSRDIKELRLIKVLSETGGYKYATVDKAE | -0.103
HMKSIETVAELVAELKKLNPNAKISNIDGTYTLEEDINTITLPKDFKYDNNLGINNKIDDFTPYISLDVKA | 0.41
HMKSIRIPFILTEGPNSQKITIDIDSDEEFRIGDVFDEDDKLWSINQILISGDRKAKMAIASEVTSISALR | -2.39
HMKSKYLIKIEGDFDEKDLYKYLINVSIVNHTKNNGFTEVEFYNDNYSLQQNFLKSMLNDGIIITEFKKVE | -0.115

Sequence | soluble fraction (log2)
HMKSLHSEVTDRIRQLIVESHLQPGQRVPELEISRDLGVSRTPIREALKVLAAEGLVELLPLRGAMVK | 0.0612
HMKSLLTARQLEVFEIARNKGYWTTPRKISLVELSKLLDISKSTLSVLLHSIEGKVMEEFYEEIRQ | -1.81
HMKSNIIPLSLKKPQRLDIFLTNYFVDLSRTQIKKMITDGNIKVNDLIAKPSLKLIGDEIIFYTLPK | -1.24
HMKSNNPLDHVRVKQRGASWAYYFEKAKVDGKRRRGEGGGYATEQDARMAGVEAYNAYIGGGAK | -0.0068
HMKSPVKLILRGSIYHIKISAVVNGQRIFVRESSHTTDKREAEQYANKRFAQLVEETEFRTN | -1.11
HMKSQSIFNVKKGDTLSHIAVHVLKKNKQKVTPEAINKMVSNIAFRNKIKNPDLIFPGQKLVLEY | 0.117
HMKSQVVAYSDFVKAVNQKQINEVQIQGDKIRAINKAGEEITVTWLQNDQKLMDDLLDNNVKTIFLE | 0.29
HMKSSYSGNFKQNVVEYMHNNHLSATETANHFKLGGGSVVLRWERIYYEEGPQALYEERRGR | -1.7
HMKSYAQIAEILSGQQPNTSRKEGSNLAVHADWIDALIAKYGTALRPEEANEVVKKEIGIVFSHVLEN | -0.0639
HMKSYQKITPATEGNYLTTYREGDDIKTYEGVKAMYTPADFDASSVREITPEEHQSYQKAKEQALQEETEQ | -0.225
HMKTALDEAKDFLNGALSKGHRPASDVVDEAKEASISEKTLKRAKLAIGIITRKEGFGSEGKWVWELPAR | -0.341
HMKTATAKIKATPFGWLRVRETPSLNGAEIARVNSGESYKILERGEGWIKIKVSDTVEGWVSEAYVELS | -0.102
HMKTEKYIQVISGTVNVRSGPGTSYAEIAKIDASQIYVVTAKEGEWLKISLANGTIGYVAGWLVKEVTG | -0.186
HMKTEVNITPGIIDWIERYVQTDKISSSMTEDFQHWKSGTKKPTFNQVEAFSKAINVPLGYFFLKTPPAE | -0.302
HMKTFSFEILADTVKKQRKAKGMTQAELSEATGINRSMIGQMENMTFKPSIEQLEALSQALDFNVIDLYTE | -0.196
HMKTGHLPVTVIIDGRIISDNLYKTGLSNNWLADQLRKNSIKSSEDVFFAYLNPERKFIYQLRSNS | -1.01
HMKTGNIVMVNLGWKGKYYSIKMFFPQVSKPSRKDVQDQIEKIYPGGKLYTFVVSNYEPGEPMLHA | -1.06
HMKTITLDEAQEIALAEVDGKVTRAVEETDDGRSYYEFDIITNDQKHELEVDASSGKITKNEIDEDYVPS | 0.171
HMKTITVEDEQAGKRLDKALAELFPHYSRSALEKLIKEGQVLVNKSFVKSKYSLKLGDEISLQFEQL | 0.173
HMKTKILAPIPGSIMVVDVKVGDTVKVGDRLVQLEAMKMENNITSEKAGKITAVLVTAGQKVLQNEVMIEL | -0.853
HMKTLLSMNIKNLRKKKNMTLEELAEKVGTSKQTIQRYESGKISNIPSDKIELLAKYLDTTPAKLMGW | 0.441
HMKTLNKRQQDIINLAREEGFVTVEHLSEYFKVTQQTIRRDLGYLSENLYLARTYGGAFFQS | -0.872
HMKTTKLEELDMQKEFILKNGKYGFGVYIGGKYIGLTDIGTVNSFKDSLQLPVVSLSDIDFKTFAEKF | -0.757
HMKTYEILFDILSRESDYISGEKLAQELGISRTSIWKAIQHLEKEGVHIESVKNKGYKLLSGDLLIAEKI | -1.14
HMKTYGGDNSLHKFDEHHSWMVAKYGPVVKQTINGETKWLKVKKDLTLAQVKKMKLEDVLLPKSQT | -0.152
HMKVDRLVSMILILLEQQRVGAQELADRFEVSVRTIYRDMEAINQAGIPVRSTSGVGGGFEIM | -0.34
HMKVFREERLQLILEKLIHEKKVVVSDLVKYFNVSPSLIRMDLAELEKRDLILRTHGGAILPD | -2.23
